Measured values published in patent US6022720A, “Bax protein channel formation” (Glaxo Wellcome Inc., priority 1997, dated 2000).

Experiments:
[1] = tested on: sympathetic neurons; experiment: Lytic effects of added protein on sympathetic neurons; type: cell-based; details: coaddition of control protein with 10 μM Bax
Description: The effect of soluble recombinant Bax and Bcl-2 on the integrity of sympathetic neurons and sheep erythrocytes was tested. Ten μM Bax protein was added to serum-free medium of sympathetic neurons. […] (see FIG. 7B).

[2] = target: T1, Bax (Homo sapiens, UniProt Q07812); experiment: Inhibition of Bax-induced release of carboxyfluorescein from liposomes; type: biochemical; details: control protein preincubated with liposomes before Bax 70 nm
T1 construct: GST (pGEX2T, thrombin site) (N, cleaved yes); made in house; host or cells: E. coli PR745
Description: To determine whether Bax was a pore-forming protein, a study was undertaken to determine whether Bax could trigger the release of liposome-encapsulated carboxyfluorescein. […] The liposomes were dialyzed for 24 hours against PBS and diluted to 8 ml. For analysis at acidic pH, fluorescence of released dye was measured after adjustment of pH to 7.5 by addition of 1 M Tris-HCl pH 7.5.
In each test 20 μl of liposomes containing 20 mM carboxyfluorescein was diluted in 1 ml of PBS (pH 7.5) and 5 μl of purified protein was added at the time indicated by the arrow. Incubation was performed at room temperature. Final Bax concentrations are indicated for each curve (see FIG. 8A). Bcl-2 was tested at 70 nM. Each curve of FIG. 8A was normalized by subtraction of the initial fluorescence value obtained at time 0.
Liposomes (20 μl in 1 ml PBS) were first incubated (15 min at room temperature) with Bcl-2 or with a control protein (stathmin) before addition of Bax (70 nm) to the liposome solution.
After addition of the compound, 80 nM Bax was added to the liposome suspension and the fluorescence measured with a spectrofluorimeter.

T1 sequence (Q07812 with tags, fused parts or gaps limits assumed): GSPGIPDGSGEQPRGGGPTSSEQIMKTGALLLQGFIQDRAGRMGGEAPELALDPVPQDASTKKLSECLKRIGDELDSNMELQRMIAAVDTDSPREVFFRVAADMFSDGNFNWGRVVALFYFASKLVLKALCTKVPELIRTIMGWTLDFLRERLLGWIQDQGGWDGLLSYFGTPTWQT

ERK2: control protein [reference compound]
effect on Bax-induced neuronal lysis upon coaddition [1]: no effect

B1: stathmin: unrelated control protein (protein, UniProt P16949 2-149, looked up)
Stathmin: ASSDIQVKELEKRASGQAFELILSPRSKESVPEFPLSPPKKKDLSLEEIQKKLEAAEERRKSHEAEVLKQLAEKREHEKEVLQKAIEENNNFSKMAEEKLTHKMEANKENREAQMAAKLERLREKDKHIEEVRKNKESKDPADETEAD
effect on Bax-induced neuronal lysis upon coaddition [1]: no effect
effect on Bax function (carboxyfluorescein efflux) [2]: no adverse effect
